Laboratory results taken from the supplement of paper PMC11316812.
± gives the standard deviation of the averaged measurements.

Assays:
MCF7 = test: percentage of EdU-negative (G0-arrested) nuclei per well, 72 h; higher = more G0 arrest; details: reference: sequence is the full UniProt precursor, the tested protein was the secreted form or ectodomain
hTERT-HMEC = test: as above; details: reference: sequence is the full UniProt precursor, the tested protein was the secreted form or ectodomain
[1] = protein concentration 0.0225 µM
[2] = protein concentration 0.020715 µM
[3] = protein concentration 0.20715 µM
[4] = protein concentration 0.023015 µM
[5] = protein concentration 0.23015 µM
[6] = protein concentration 0.0076025 µM
[7] = protein concentration 0.076025 µM
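Note: secreted proteins added to cultured cells, EdU pulse at the end, nuclei found by Hoechst imaging, EdU status from nuclear versus surrounding ring intensity ratio, PBS as neutral control.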

Sequence | percentage of EdU-negative (MCF7; [1]) [%] | percentage of EdU-negative (MCF7; protein concentration 0.225 µM) [%] | percentage of EdU-negative (hTERT-HMEC; [1]) [%] | percentage of EdU-negative (hTERT-HMEC; protein concentration 0.225 µM) [%] | other results
MKYLRHRRPNATLILAIGAFTLLLFSLLVSPPTCKVQEQPPAIPEALAWPTPPTRPAPAPCHANTSMVTHPDFATQPQHVQNFLLYRHCRHFPLLQDVPPSKCAQPVFLLLVIKSSPSNYVRRELLRRTWGRERKVRGLQLRLLFLVGTASNPHEARKVNRLLELEAQTHGDILQWDFHDSFFNLTLKQVLFLQWQETRCANASFVLNGDDDVFAHTDNMVFYLQDHDPGRHLFVGQLIQNVGPIRAFWSKYYVPEVVTQNERYPPYCGGGGFLLSRFTAAALRRAAHVLDIFPIDDVFLGMCLELEGLKPASHSGIRTSGVRAPSQRLSSFDPCFYRDLLLVHRFLPYEMLLMWDALNQPNLTCGNQTQIY [Q9Y2A9] | 25.7 ± 2 | 30.2 ± 0.85 | 4.326 ± 0.034 | 7.879 ± 0.065 | –
MAFLPSWVCVLVGSFSASLAGTSNLSETEPPLWKESPGQLSDYRVENSMYIINPWVYLERMGMYKIILNQTARYFAKFAPDNEQNILWGLPLQYGWQYRTGRLADPTRRTNCGYESGDHMCISVDSWWADLNYFLSSLPFLAAVDSGVMGISSDQVRLLPPPKNERKFCYDVSSCRSSFPETMNKWNTFYQYLQSPFSKFDDLLKYLWAAHTSTLADNIKSFEDRYDYYSKAEAHFERSWVLAVDHLAAVLFPTTLIRSYKFQKGMPPRILLNTDVAPFISDFTAFQNVVLVLLNMLDNVDKSIGYLCTEKSNVYRDHSESSSRSYGNNS [Q6P5S2] | 25.7 ± 0.86 | 26.6 ± 0.54 | 4.92 ± 0.16 | 5.82 ± 0.65 | –
MLLKTVLLLGHVAQVLMLDNGLLQTPPMGWLAWERFRCNINCDEDPKNCISEQLFMEMADRMAQDGWRDMGYTYLNIDDCWIGGRDASGRLMPDPKRFPHGIPFLADYVHSLGLKLGIYADMGNFTCMGYPGTTLDKVVQDAQTFAEWKVDMLKLDGCFSTPEERAQGYPKMAAALNATGRPIAFSCSWPAYEGGLPPRVNYSLLADICNLWRNYDDIQDSWWSVLSILNWFVEHQDILQPVAGPGHWNDPDMLLIGNFGLSLEQSRAQMALWTVLAAPLLMSTDLRTISAQNMDILQNPLMIKINQDPLGIQGRRIHKEKSLIEVYMRPLSNKASALVFFSCRTDMPYRYHSSLGQLNFTGSVIYEAQDVYSGDIISGLRDETNFTVIINPSGVVMWYLYPIKNLEMSQQ | – | – | – | – | percentage of EdU-negative (MCF7; [2]): 27.8 ± 0.95%; percentage of EdU-negative (MCF7; [3]): 26.5 ± 1.4%; percentage of EdU-negative (hTERT-HMEC; [2]): 5.62 ± 0.13%; percentage of EdU-negative (hTERT-HMEC; [3]): 6.091 ± 0.044%
MEYQILKMSLCLFILLFLTPGILCICPLQCICTERHRHVDCSGRNLSTLPSGLQENIIHLNLSYNHFTDLHNQLTQYTNLRTLDISNNRLESLPAHLPRSLWNMSAANNNIKLLDKSDTAYQWNLKYLDVSKNMLEKVVLIKNTLRSLEVLNLSSNKLWTVPTNMPSKLHIVDLSNNSLTQILPGTLINLTNLTHLYLHNNKFTFIPDQSFDQLFQLQEITLYNNRWSCDHKQNITYLLKWMMETKAHVIGTPCSTQISSLKEHNMYPTPSGFTSSLFTVSGMQTVDTINSLSVVTQPKVTKIPKQYRTKETTFGATLSKDTTFTSTDKAFVPYPEDTSTETINSHEAAAATLTIHLQDGMVTNTSLTSSTKSSPTPMTLSITSGMPNNFSEMPQQSTTLNLWREETTTNVKTPLPSVANAWKVNASFLLLLNVVVMLAV | 24.1 ± 0.32 | 27.6 ± 1.6 | 5.851 ± 0.022 | 10.4 ± 1.5 | –
MLAVGCALLAALLAAPGAALAPRRCPAQEVARGVLTSLPGDSVTLTCPGVEPEDNATVHWVLRKPAAGSHPSRWAGMGRRLLLRSVQLHDSGNYSCYRAGRPAGTVHLLVDVPPEEPQLSCFRKSPLSNVVCEWGPRSTPSLTTKAVLLVRKFQNSPAEDFQEPCQYSQESQKFSCQLAVPEGDSSFYIVSMCVASSVGSKFSKTQTFQGCGILQPDPPANITVTAVARNPRWLSVTWQDPHSWNSSFYRLRFELRYRAERSKTFTTWMVKDLQHHCVIHDAWSGLRHVVQLRAQEEFGQGEWSEWSPEAMGTPWTESRSPPAENEVSTPMQALTTNKDDDNILFRDSANATSLPVQDSSSVPLPTFLVAGGSLAFGTLLCIAIVLRFKKTWKLRALKEGKTSMHPPYSLGQLVPERPRPTPVLVPLISPPVSPSSLGSDNTSSHNRPDARDPRSPYDISNTDYFFPR | – | – | – | – | percentage of EdU-negative (MCF7; [4]): 25.4 ± 3%; percentage of EdU-negative (MCF7; [5]): 24.4 ± 1.3%; percentage of EdU-negative (hTERT-HMEC; [4]): 5.6 ± 1.1%; percentage of EdU-negative (hTERT-HMEC; [5]): 5.05 ± 0.44%
MALGQKLFITMSRGAGRLQGTLWALVFLGILVGMVVPSPAGTRANNTLLDSRGWGTLLSRSRAGLAGEIAGVNWESGYLVGIKRQRRLYCNVGIGFHLQVLPDGRISGTHEENPYSLLEISTVERGVVSLFGVRSALFVAMNSKGRLYATPSFQEECKFRETLLPNNYNAYESDLYQGTYIALSKYGRVKRGSKVSPIMTVTHFLPRI | – | – | – | – | percentage of EdU-negative (MCF7; [6]): 25.3 ± 0.82%; percentage of EdU-negative (MCF7; [7]): 25 ± 2.6%; percentage of EdU-negative (hTERT-HMEC; [6]): 4.73 ± 0.69%; percentage of EdU-negative (hTERT-HMEC; [7]): 5.27 ± 0.17%
